Molecular target: Purified human ribosomes from HEK293 cells (human)

Substance: purified, recombinant human cGAS (from UniProt Q8N884 1-522) (natural protein)
- cGAMP synthesis by cGAS (thin-layer chromatography) with saturating DNA, fold stimulation by pre-incubation with purified ribosomes, cGAS at 150–300 nM: 8 fold

From article PMC8260207
